Earlier results, collected in patent US20250341526A1, “NOVEL DYES” (Quantum-Si Incorporated, priority 2024, published 2025).

Test system: amino acid at a terminal position of a polypeptide
Settings: Table 1, ClpS proteins; amino acid at terminal position; inferred from literature and/or demonstrated by the inventors; cited from earlier work

Molecule | Binding Pref.
PS563: ClpS amino acid recognition protein, SEQ ID NO: 77 (protein, listed as Acidobacteria bacterium) MSSRSATAYPEVEDDTSDQLQPLYHVILLNDEDHTYDYVIEMLQKIFGFPESKAFSHAVEVDTKGTTILLTCDLEQAERKRDLIHSYGPDWRLPRSLGSMAAVVEPAAG | I, L, V
PS566: ClpS amino acid recognition protein, SEQ ID NO: 80 (protein, listed as Planctomycetaceae bacterium) MSSPSSLDDVQVSTSRAKPANETRTRKQPPYAVIVENDDHHTFLYVIEALMKVCGHAPEKGFVLAQQIHTQGKAMVWSGTLELAELKRDQLRGFGPDNYAPRPVTFPLGVTIEPLP | I, L, V
PS374: ClpS amino acid recognition protein, SEQ ID NO: 7 (protein) MRWEDPLAAEPVTPGVAPVVEEETDAAVETPWRVILYDDDIHTFEEVILQLMKATGCTPEQGERHAWTVHTRGKDCVYQGDFFDCFRVQGVLREIQLVTEIEG | F, Y, W, L
PS575: ClpS amino acid recognition protein, SEQ ID NO: 89 (protein, listed as Leptospira kmetyi) MASTQTPDLNEITEESTKSTGGPWRVVLWDDNEHTYEYVIEMLMEICTMTVEKAFLHAVQVDQEKRTVVFSGEFEHAEHVQERILTYGADPRMSNSKGSMSATLEK | I, L, V
PS576: ClpS amino acid recognition protein, SEQ ID NO: 90 (protein, Leptospira interrogans) MASTQTPDLNEITEESTKSTGGPWRVVLWDDNEHTYEYVIEMLVEICMMTVEKAFLHAVQVDKEKRTVDFSGELEHAEHVQERILNYGADPRMSNSKGSMSATLER | I, L, V
PS569: ClpS amino acid recognition protein, SEQ ID NO: 83 (protein, listed as Planctomycetes bacterium) MYSKNQIKIYCSEDDKGQTATPLLEKKPKFAPLYHVILWDDNTHTYEYVIKLLMSLFRMTFEKAYQHTLEVDKKGRTICITTHLEKAELKQEQISNFGPDILMQNSKGPMSATIEPAN | I, L, V
Agrobacterium tumifaciens ClpS2 (atClpS2): ClpS amino acid recognition protein, SEQ ID NO: 94 (protein, listed as Agrobacterium tumifaciens) MSDSPVDLKPKPKVKPKLERPKLYKVMLLNDDYTPREFVTVVLKAVFRMSEDTGRRVMMTAHRFGSAVVVVCERDIAETKAKEATDLGKEAGFPLMFTTEPEE | F, W, Y
atClpS2 C72S: ClpS amino acid recognition protein, SEQ ID NO: 100 (protein) MSDSPVDLKPKPKVKPKLERPKLYKVMLLNDDYTPREFVTVVLKAVFRMSEDTGRRVMMTAHRFGSAVVVVSERDIAETKAKEATDLGKEAGFPLMFTTEPEE | F, W, Y
atClpS2-V1 + C72S: ClpS amino acid recognition protein, SEQ ID NO: 101 (protein) MSDSPVDLKPKPKVKPKLERPKLYKVMLLNDDYTPMSFVTVVLKAVFRMSEDTGRRVMMTAHRFGSAVVVVSERDIAETKAKEATDLGKEAGFPLMFTTEPEE | F, W, Y
PS375: ClpS amino acid recognition protein, SEQ ID NO: 8 (protein) MEAEPETKVLASIPGVGTSEPFRVVLFNDEEHSFDEVIFQIIKAVRCSRAKAEALTMEVHNSGRSIVYTGPIEQCIRVSAVLEEIELRTEIQS | F, L
PS565: ClpS amino acid recognition protein, SEQ ID NO: 79 (protein, listed as Aquisphaera sp.) MSEFDHEHSGDTSVADPIVTTKTAPKPQKHAENETETRRQPPYNVIILNDEEHTFDYVIELLCKVFRHSLATAQELTWRIHLTGRAVVLTTHKELAELKRDQVLAYGPDPRMSVSKGPLDCFIEPAPGG | I, L, V
PS570: ClpS amino acid recognition protein, SEQ ID NO: 84 (protein, listed as Leptospira congkakensis) MTGAGASQPSILEETEVRPRLSDGPWKVVLWDDDFHTYEYVIEMLMDVCQMPWEKAFQHAVEVDTRKKTIVFSGELEHAEFVHERILNYGPDPRMGSSKGSMTATLEQ | I, L, V
PS571: ClpS amino acid recognition protein, SEQ ID NO: 85 (protein, listed as Leptospira meyeri) MTSSGASQPSILEETERKPRLSDGPWKVVLWDDDFHTYEYVIEMLMDVCQMPWEKAFQHAVEVDTRKKTIVFFGELEHAEFVHERILNYGPDPRMGTSKGSMTATLEK | I, L, V
PS376: ClpS amino acid recognition protein, SEQ ID NO: 9 (protein) MPTNDLDLLEKQDVKIERPKMYQVVMYNDDFTPFDFVVAVLMQFFNKGMDEATAIMMQVHMQGKGICGVFPKDIAETKATEVMKWAKVEQHPLRLQVEAQA | F, W, L
Agrobacterium tumifaciens ClpS1 (atClpS1): ClpS amino acid recognition protein, SEQ ID NO: 93 (protein, listed as Agrobacterium tumifaciens) MIAEPICMQGEGDGEDGGTNRGTSVITRVKPKTKRPNLYRVLLLNDDYTPMEFVIHILERFFQKDREAATRIMLHVHQHGVGECGVFTYEVAETKVSQVMDFARQHQHPLQCVMEKK | F, W, Y, L
PS218: ClpS amino acid recognition protein, SEQ ID NO: 98 (protein) MIAEPICMQGEGDGEDGGTNRGTSVITRVKPKTKRPNLYRVLLLNDDYTPFQFVIHILERFFQKDREAAWRITLHVHQHGVGECGVFTYEVAETKVSQVMDFARQHQHPLQCVMEKK | F, W, Y, L
PS574: ClpS amino acid recognition protein, SEQ ID NO: 88 (protein, listed as Gemmata obscuriglobus) MANATPTPDVVPEEETETRTRRQPPYAVVLHNDDTNTMDFVVTVLRKVFGYTVEKCVELMLEAHTQGKVAVWIGALEVAELKADQIKSFGPDPHVTKNGHPLGVTVEPAA | I, L, V
PS564: ClpS amino acid recognition protein, SEQ ID NO: 78 (protein, listed as Planctomycetes bacterium) MFEEVVSVAVAEPKTKKQSRTKPKRQPPYHVILWDDTDHTFDYVIKMMGELFRMPREKGYQLAKEVDTSGRAICMTTTLELAELKRDQIHAFGRDDASAHCKGSMSATIEPAEG | I, L, V
PS562: ClpS amino acid recognition protein, SEQ ID NO: 76 (protein, listed as Rubripirellula amarantea) MSDQQSMVAEPEVVVHTQDEKKLEKQNKRKKQPRYNVVLWDDTDHSYDYVVLMMKQLFHHPIETGFQIAKQVDKGGKAICLTTTMEHAELKRDQIHAFGKDDLIARCTGSMSATIEPVPE | I, L, V
PS577: ClpS amino acid recognition protein, SEQ ID NO: 91 (protein, listed as Tuwongella immobilis) MSASSSQPGTTTKPDLDIQPRLLPPFHVILENDEFHSMEFVIDTLRKVLGVSIERAYQLMMTAHESGQAIIWTGPKEVAELKYEQVIGFHEKRSDGRDLGPLGCRIEPAV | I, L, V
PS573: ClpS amino acid recognition protein, SEQ ID NO: 87 (protein, listed as Leptospira fluminis) MSQTPVIEETTVKDPVKTGGPWKVVLWDDDEHTYDYVIEMLMEVCVMTMEQAFHHAVEVDTQKKTVVYSGEFEHAEHIQELILEYGPDPRMAVSKGSMSATLEKS | I, L, V
PS572: ClpS amino acid recognition protein, SEQ ID NO: 86 (protein, listed as Blastopirellula marina) MSSEELSLQTRPKRQPPFGVILHNDDLNSFDYVIDSIRKVFHYELEKCFQLTLEAHETGRSLLWTGTLEGAELKQELLLSCGPDPIMLDKGGLPLKVTLEELPQ | I, L, V
PS578: ClpS amino acid recognition protein, SEQ ID NO: 92 (protein, listed as Planctomycetes bacterium) MSGTVVESKPRNSTQLAPRWKVIVHDDPVTTFDFVLGVLRRVFAKPPGEARRITREAHDTGSALVDVLALEQAEFRRDQAHSLARAEGFPLTLTLEPAD | I, L, V
PS567: ClpS amino acid recognition protein, SEQ ID NO: 81 (protein, listed as Planctomycetaceae bacterium) MADYEDAGEDALEDDFDHGTVTVAPQKPEPKKQSENKRQANRQPRYNVLLWDSEDHTFEYVEKMLRELFGHIKKQCQIIAEQVDQEGRAVVLTTTLEHAELKRDQIHAYGKDQLEGSKGSMWSTIEAVD | I, L, V
PS568: ClpS amino acid recognition protein, SEQ ID NO: 82 (protein, listed as Dehalococcoidia bacterium) MTTPSLPTRETEVEERTEVEPERLYHLVLLDDDQHSYQYVIEMLASIFGYGSEKAWTLARIVDTEGRAILETASHAQCERHQSQIHAYGADSRIPTSVGSMSAVIEEAGTPPQT | I, L, V
